The Human Domainome abundance scans (Beltran et al. 2025)
± gives the uncertainty stated by the source.

B1: Double-stranded RNA-binding protein Staufen homolog 1, residues 183 to 249; numbered along this chain, O95793 (parent)
chain: KSEISQVFEIALKRNLPVNFEVARESGPPHMKNFVTKVSVGEFVGEGEGKSKKISKKNAAIAVLEEL

Variants of: B1
Test: abundance fitness (aPCA) (normalised: wild type 0, dead -1); higher = more abundant; growth selection in yeast, the domain comes from the species named
Conditions: Homo sapiens
S5F gave an abundance fitness of -0.512 ± 0.2. In the case of A11P, the abundance fitness is reported as -0.891 ± 0.1. Work on A11I yielded an abundance fitness of -1.08 ± 0.26. Variant A11M has an abundance fitness of -0.913 ± 0.098. For A11T, the abundance fitness was -0.653 ± 0.087. Work on A11C yielded an abundance fitness of -0.825 ± 0.11. A59T gave an abundance fitness of -0.869 ± 0.091. A59E gave an abundance fitness of -0.798 ± 0.065. In the case of A59V, the abundance fitness is reported as -1.03 ± 0.072. A59R showed an abundance fitness of -0.843 ± 0.041. A59I showed an abundance fitness of -1.03 ± 0.32. For A59W, the abundance fitness was -0.937 ± 0.066. A59L showed an abundance fitness of -0.806 ± 0.059. A59M gave an abundance fitness of -0.753 ± 0.075. I10T gave an abundance fitness of -0.542 ± 0.22. K50Q gave an abundance fitness of -0.036 ± 0.051. Work on K50A yielded an abundance fitness of -0.035 ± 0.047. Variant K50W has an abundance fitness of -0.221 ± 0.051. For K50V, the abundance fitness was -0.127 ± 0.045. For K50I, the abundance fitness was -0.145 ± 0.065. Variant K50N has an abundance fitness of 0.009 ± 0.09. Work on G49Y yielded an abundance fitness of -1 ± 0.18. In the case of G49M, the abundance fitness is reported as -0.729 ± 0.056. With G49V the abundance fitness was -0.694 ± 0.04. In the case of G49A, the abundance fitness is reported as -0.485 ± 0.043. Work on G49S yielded an abundance fitness of -0.483 ± 0.043. F34H showed an abundance fitness of -0.544 ± 0.081. With F34S the abundance fitness was -0.54 ± 0.045. Variant F34E has an abundance fitness of -0.56 ± 0.051. F34P gave an abundance fitness of -0.458 ± 0.058. Variant F34M has an abundance fitness of -0.56 ± 0.05. For F34L, the abundance fitness was -0.698 ± 0.044. Variant F34I has an abundance fitness of -0.372 ± 0.063. Variant F34N has an abundance fitness of -0.468 ± 0.085. K1T showed an abundance fitness of -0.166 ± 0.065. K1Y gave an abundance fitness of -0.211 ± 0.11. For K1A, the abundance fitness was -0.436 ± 0.11. For K1D, the abundance fitness was -0.235 ± 0.095. With H30G the abundance fitness was -0.017 ± 0.039. Variant H30P has an abundance fitness of -0.221 ± 0.046. Work on H30F yielded an abundance fitness of -0.278 ± 0.056. With H30A the abundance fitness was -0.139 ± 0.043. In the case of T36M, the abundance fitness is reported as -0.749 ± 0.073. T36Y gave an abundance fitness of -0.449 ± 0.12. Work on E21A yielded an abundance fitness of -0.059 ± 0.045. Variant E21W has an abundance fitness of -0.009 ± 0.053. Variant E21Q has an abundance fitness of 0.014 ± 0.058. E21Y gave an abundance fitness of -0.172 ± 0.076. In the case of F43P, the abundance fitness is reported as -0.649 ± 0.087. Work on F43G yielded an abundance fitness of -0.63 ± 0.042. K37S gave an abundance fitness of -0.364 ± 0.12. With K37N the abundance fitness was -0.328 ± 0.2. K37F showed an abundance fitness of -0.58 ± 0.28. With K37R the abundance fitness was 0.034 ± 0.059. In the case of K37G, the abundance fitness is reported as -0.758 ± 0.1. For K37W, the abundance fitness was -0.442 ± 0.13. With K37V the abundance fitness was -0.345 ± 0.082. Work on K32H yielded an abundance fitness of -0.249 ± 0.088. With K32S the abundance fitness was -0.138 ± 0.054. K32G showed an abundance fitness of 0.001 ± 0.062. K32Y gave an abundance fitness of -0.187 ± 0.1. K32P showed an abundance fitness of -0.099 ± 0.06. In the case of K32A, the abundance fitness is reported as -0.037 ± 0.059. Variant K32T has an abundance fitness of -0.118 ± 0.058. Work on K32I yielded an abundance fitness of -0.178 ± 0.1. With K56I the abundance fitness was -0.127 ± 0.19. In the case of K56R, the abundance fitness is reported as -0.042 ± 0.044. Work on K56H yielded an abundance fitness of -0.743 ± 0.33. In the case of K56N, the abundance fitness is reported as -0.405 ± 0.34. K56G gave an abundance fitness of -0.599 ± 0.056. K56Q gave an abundance fitness of -0.291 ± 0.1. For K56P, the abundance fitness was -0.997 ± 0.2. For K56A, the abundance fitness was -0.457 ± 0.069. E66L gave an abundance fitness of 0.114 ± 0.038. With E66H the abundance fitness was -0.002 ± 0.085. E66Y gave an abundance fitness of 0.063 ± 0.069. For L67P, the abundance fitness was -0.526 ± 0.094. With L67R the abundance fitness was -0.751 ± 0.074. In the case of L67V, the abundance fitness is reported as -0.439 ± 0.076. Work on L67H yielded an abundance fitness of -0.299 ± 0.25. L67T showed an abundance fitness of -0.6 ± 0.077. E65S showed an abundance fitness of 0.003 ± 0.048. E65Y gave an abundance fitness of -0.212 ± 0.082. Work on E65C yielded an abundance fitness of -0.348 ± 0.079. E65D showed an abundance fitness of -0.081 ± 0.069. E65L gave an abundance fitness of -0.417 ± 0.044. With E65V the abundance fitness was -0.584 ± 0.045. E65M gave an abundance fitness of -0.336 ± 0.054. With E65A the abundance fitness was -0.038 ± 0.042. For N58H, the abundance fitness was -0.284 ± 0.075. For N58S, the abundance fitness was -0.341 ± 0.043. Work on N58Q yielded an abundance fitness of -0.126 ± 0.051. N58I showed an abundance fitness of -0.614 ± 0.085. N58M showed an abundance fitness of -0.055 ± 0.053. N58F showed an abundance fitness of -0.434 ± 0.071. With N58Y the abundance fitness was -0.4 ± 0.075. N58R showed an abundance fitness of -0.105 ± 0.04. Work on N58T yielded an abundance fitness of -0.604 ± 0.064. With L12D the abundance fitness was -0.047 ± 0.17. For L12W, the abundance fitness was -0.063 ± 0.096. In the case of L12I, the abundance fitness is reported as -0.026 ± 0.22. In the case of L12F, the abundance fitness is reported as -0.075 ± 0.13. L12H showed an abundance fitness of -0.032 ± 0.34. L12P showed an abundance fitness of -0.645 ± 0.12. L12Q gave an abundance fitness of 0.01 ± 0.17. In the case of L12C, the abundance fitness is reported as -0.06 ± 0.099. Work on N15G yielded an abundance fitness of 0.025 ± 0.041. N15F showed an abundance fitness of -0.557 ± 0.12. In the case of N15Y, the abundance fitness is reported as -0.637 ± 0.1. In the case of E3A, the abundance fitness is reported as -0.049 ± 0.041. Work on E3Q yielded an abundance fitness of -0.247 ± 0.062. E3D showed an abundance fitness of -0.286 ± 0.059. In the case of E3I, the abundance fitness is reported as -0.001 ± 0.082. E3W showed an abundance fitness of -0.309 ± 0.082. Variant E3G has an abundance fitness of -0.551 ± 0.04. Variant E3S has an abundance fitness of -0.208 ± 0.045. E3P showed an abundance fitness of -0.023 ± 0.07. In the case of E3L, the abundance fitness is reported as -0.231 ± 0.043. With S26Q the abundance fitness was -0.337 ± 0.42. L64A showed an abundance fitness of -0.473 ± 0.049. With L64N the abundance fitness was -0.423 ± 0.094. L64F gave an abundance fitness of -1.15 ± 0.16. With L64M the abundance fitness was -0.218 ± 0.048. F20Q showed an abundance fitness of -0.657 ± 0.065. In the case of F20A, the abundance fitness is reported as -0.499 ± 0.048. Variant F20L has an abundance fitness of -0.286 ± 0.042. Work on E25S yielded an abundance fitness of 0.002 ± 0.038. With E25I the abundance fitness was -0.141 ± 0.063. E25L showed an abundance fitness of -0.083 ± 0.034. Variant E25H has an abundance fitness of -0.052 ± 0.064. E25A showed an abundance fitness of -0.081 ± 0.055. In the case of V18Y, the abundance fitness is reported as -0.739 ± 0.13. In the case of V18M, the abundance fitness is reported as -0.396 ± 0.093. For V18S, the abundance fitness was -0.465 ± 0.065. Work on V18W yielded an abundance fitness of -0.861 ± 0.096. For V18A, the abundance fitness was -0.377 ± 0.054. For R14E, the abundance fitness was -0.334 ± 0.052. Work on R14L yielded an abundance fitness of -0.139 ± 0.052. In the case of R14G, the abundance fitness is reported as -0.361 ± 0.047. For R14K, the abundance fitness was -0.212 ± 0.082. Variant R14T has an abundance fitness of -0.371 ± 0.073. Variant M31K has an abundance fitness of 0.104 ± 0.053. M31C showed an abundance fitness of 0.073 ± 0.047. M31G showed an abundance fitness of -0.013 ± 0.036. M31H gave an abundance fitness of 0.079 ± 0.076. In the case of M31Y, the abundance fitness is reported as -0.089 ± 0.066. Work on N33A yielded an abundance fitness of -0.219 ± 0.05. With N33Y the abundance fitness was -0.255 ± 0.13. With N33R the abundance fitness was 0.008 ± 0.04. In the case of N33E, the abundance fitness is reported as -0.269 ± 0.059. With N33L the abundance fitness was -0.072 ± 0.041. N33T showed an abundance fitness of 0.052 ± 0.048. Variant E46C has an abundance fitness of -0.034 ± 0.1. For E46M, the abundance fitness was 0.028 ± 0.088. With E46N the abundance fitness was 0.01 ± 0.16. Work on E46G yielded an abundance fitness of -0.449 ± 0.067. E46Y gave an abundance fitness of -0.013 ± 0.13. Q6L gave an abundance fitness of -0.158 ± 0.027. Q6G gave an abundance fitness of -0.634 ± 0.028. Variant Q6M has an abundance fitness of -0.169 ± 0.038. In the case of Q6E, the abundance fitness is reported as -0.021 ± 0.037. In the case of Q6H, the abundance fitness is reported as -0.415 ± 0.034. Work on Q6I yielded an abundance fitness of -0.393 ± 0.034. In the case of Q6T, the abundance fitness is reported as -0.198 ± 0.03. Q6C showed an abundance fitness of -0.283 ± 0.033. Q6N gave an abundance fitness of -0.494 ± 0.03. Variant I61L has an abundance fitness of -0.061 ± 0.044.
